Assay results from article PMC3712923.

Columns and labels:
[1] = molecular target: β-lactamase-SBP fusion; assay: SPR; BIAcoreX; purified β-lactamase-SBP amine-coupled to a CM5 chip, streptavidin variant as analyte; blank flow cell as reference
[2] = molecular target: SAVSBPM18 engineered streptavidin (S27A, G48T) (UniProt P22629); assay: affinity column chromatography; streptavidin variant coupled to Affi-gel 15; culture supernatant with β-lactamase-SBP loaded at 142-150% of the theoretical column binding capacity (overloaded); leakage during washing; pure wash fractions pooled with the elution fractions
[3] = molecular target: SAVSBPM18 engineered streptavidin (S27A, G48T) (UniProt P22629); assay: as above; remark: listed apart in the source
[4] = molecular target: wild-type streptavidin (UniProt P22629); assay: as above
[5] = molecular target: SAVSBPM18 engineered streptavidin (S27A, G48T) (UniProt P22629); assay: affinity column chromatography; streptavidin variant coupled to Affi-gel 15; culture supernatant with β-lactamase-SBP loaded at 20% of the theoretical column binding capacity (non-overloaded); PBS wash, elution with 5 mM d-biotin
[6] = molecular target: wild-type streptavidin (UniProt P22629); assay: as above

Chain of wild-type streptavidin (from UniProt P22629 25-183) (natural protein) (P22629 25-183): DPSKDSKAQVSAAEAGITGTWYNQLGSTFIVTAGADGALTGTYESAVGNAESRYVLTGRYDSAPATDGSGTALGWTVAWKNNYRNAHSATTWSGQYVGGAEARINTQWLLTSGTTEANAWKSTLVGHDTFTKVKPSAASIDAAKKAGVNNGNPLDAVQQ
Chain of SAVSBPM18 engineered streptavidin (S27A, G48T) (P22629 25-183 S51A/G72T): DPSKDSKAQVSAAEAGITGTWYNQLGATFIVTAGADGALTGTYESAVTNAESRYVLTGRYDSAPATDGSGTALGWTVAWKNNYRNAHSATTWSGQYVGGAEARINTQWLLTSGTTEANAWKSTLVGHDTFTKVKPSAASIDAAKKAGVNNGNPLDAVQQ
Chain of wild-type streptavidin (UniProt P22629) (P22629 25-183): as the sequence (P22629 25-183) above

| Substance | Kd [1] | koff [1] | kon [1] | percent recovery [2] | percent recovery [3] | percent recovery [4] | percent recovery [5] | percent recovery [6] |
| --- | --- | --- | --- | --- | --- | --- | --- | --- |
| SAVSBPM18 engineered streptavidin (S27A, G48T) (from UniProt P22629 25-183) (designed binder) | 15.7 nM | 0.000711 s⁻¹ | 45300 M⁻¹ s⁻¹ |  |  |  |  |  |
| wild-type streptavidin (from UniProt P22629 25-183) (natural protein) | 8.59 nM | 0.000816 s⁻¹ | 95000 M⁻¹ s⁻¹ |  |  |  |  |  |
| β-lactamase-SBP fusion |  |  |  | 51% | 58% | 51% | 91% | 90% |
